Source: patent US20240000960A1 (CLEVELAND CLINIC FOUNDATION, published 2024)

Biological target: T1, CD6 (as used in surface plasmon resonance) (human, UniProt P30203 18-402, limits assumed)
T1 construct: also called human CD6
T1 sequence (looked up): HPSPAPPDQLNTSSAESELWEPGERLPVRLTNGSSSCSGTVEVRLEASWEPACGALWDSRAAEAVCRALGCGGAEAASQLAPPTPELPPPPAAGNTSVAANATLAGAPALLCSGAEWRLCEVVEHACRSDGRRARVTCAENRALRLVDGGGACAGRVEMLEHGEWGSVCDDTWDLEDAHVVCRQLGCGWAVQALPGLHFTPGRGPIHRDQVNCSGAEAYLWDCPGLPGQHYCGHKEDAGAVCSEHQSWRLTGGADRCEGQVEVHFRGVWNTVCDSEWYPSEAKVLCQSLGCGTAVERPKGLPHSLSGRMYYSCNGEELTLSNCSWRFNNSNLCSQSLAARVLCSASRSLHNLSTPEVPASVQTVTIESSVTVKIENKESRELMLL
Assay: surface plasmon resonance

B1: mouse anti-human CD6 IgG (UMCD6) (antibody, V domains shown)
VH: QVQLKESGPGLVAPSQSLSITCTVSGFSLSRYSVHWVRQPPGKGLEWLGLIWGGGFTDYNSALKSRLSITKDNSKSQVFLKMNSLQTDDTAMYYCAREGVAYWGQGTLVSVSA
VL: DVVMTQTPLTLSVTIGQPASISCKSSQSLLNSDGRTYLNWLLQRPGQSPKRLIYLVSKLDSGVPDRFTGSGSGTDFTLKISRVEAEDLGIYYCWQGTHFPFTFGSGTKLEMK
notes: Mouse IgG; also called parent anti-CD6 mAb; parental mouse anti-CD6 IgG
Kd: 0.01 nM
